Reference: the DeepSol protein solubility set

Assay: soluble on expression in E. coli; label from the status in PepcDB or PDB records

| Sequence | soluble on expression in E. coli |
| --- | --- |
| MTAVVSNREEDSMNNEPSLSGRAIIGLIYPPPDIRTIVDKTARFAAKNGVDFENKIREKEAKNPKFNFLSITDPYHAYYKKMVYDFSEGRVEAPKVPQAVKEHVKKAEFVPSAPPPAYEFSADPSTINAYDLDLIRLVALFVARNGRQFLTQLMTREARNYQFDFLKPAHCNFTYFTKLVDQYQKVLVPSTNVVAQLQDDATNKKRLIEDINYRVSWEKHQKGLKDREEAEAEKERQAYASIDWHDFVVVQTVDFQPGDTSQLPPLCTPKDVGARILLEARNEMQKAAAEMQEMDMEESDSDDEDAVQAPEAPAFTAPLPPTKQKDVIVRDYDPKRNVTQKPKAVENWIISPLTGERIPSDKLAEHVRYNTVDSQYKEDRDRHIGERSTEEPVLALGADISRNLGNFAERRTDIFGVGGEQTMIGKKLGEEDNSQQGQNKLIWDGTEETRDMITRAVQNKVTLDQQINEIHRQHGFVADPSKEKIGAQQVPRHQSTQGNVTITQGITNIPGQMPSGWPPVPPMGMPGMPNQALPPIRQMDFGGGPPAKRPRTEDDLIPEADWLKKVNGAISLNVHLPQAPEHGMDGSIVQFTIQVTAPMSELKQQIQDRYGMPVGKQKLMSDGLFVKDNMSSAFYNLADRTAIYLQVKERGGKKK | not soluble |
| MTCFKIRLSKQPLKGRTMNKPFITQAQLALYKYQPSSKYYGKTMAYTFASELLDYSKVNKFIIHEEIQCFLNRRISNNIWKIYFSDESVAYIKILELQDDYSRGIEIKTFDFNPNVGDVFG | not soluble |
| MTDHALLLVNLGSPASTQVADVRSYLNQFLMDPYVIDIPWPLRRLLVSLILIKRPEQSAHAYASIWWDEGSPLVVLSKRLQQAMKKEWSHGPVELAMRYGEPSIETVLTRLSEQGFKKVTLAPLYPQFADSTVTTVIEEAKRVVRAKSLKMQFSVLQPFYDQPEYVSALVESVRPHLEQPYDHLLLSFHGLPERHLHKRDPTGKHCLKDDCCMTAPAQVVATCYRAQCLQSAAAFAKRMGIPDGKWSVSFQSRLGRAKWIEPYTEARLDELAAQGVKKLLVMCPAFVADCIETLEEIGDRGAEQFKEAGGEELILVPCLNDDPNWAKELNRLCERAPLML | not soluble |
| MTDKLPLALFLMGPTASGKTELAIRLRQKFPVEIISVDSALIYKGMDIGTAKPDERELSLAPHRLIDILDPSESYSAADFRRDALQAMDDIVAEGKIPLLVGGTMLYYKALLEGLSPLPAANPEIRQQIEQEALTKGWSVLHDELKEIDPVSAARIHPNDPQRLSRALEVYRISGKTLTELTQTKGESLPYRVKQFAIAPKDRAELHRRIELRFDKMMEAGFEEEMKALYARKDLHPDLPSIRCVGYRQMWEYLDGECTRDEAVFRGVCATRQLAKRQITWLRSWDDLTWLDSDNIEQALETMSEAIASDLEHHHHHH | soluble |
| MTDKWLDTINWSADGLIPAIAQDKNNGKILMVAWMNREALKRTVESGEAVYWSRSRKKLWHKGEESGHTQKISAIHLDCDEDILLLSVEQKGGIACHTGRQSCFFRQLKNGEWVVTEPVIKDPSQIYTK | not soluble |
| MTDLEVSVDDLVKLLSPTMSLIVRRKTMEVVTQLGTPLDGSAGKYFQAQDFALGKAICQLCEATSSDRTETLAALTNFTSGSIEAADFVLDKSKCVEIAYTAVVTNALYSSVASRLLVNVSRHFPDRVDHKLKARNANYIGQLLNEIKKSVETGDEDRAKFVGFTVVNLSVLPPIRQNIVQGGENESSPPSTTMKLLPIVCELLTTAETTEIRECAADVLRNLAFDDSLHGSLLDTSDEYLCSILAPLMDVNDNLDEEEIAKLPVRLQYYEKERDSSDIVRQKLIEALFQLCATKHGREVLRAKGVYPAMRELDKGTETAEDKHKKTLLSSQQEHTLHALIGILIRYESEMDVDPELSSIRELGTSEVTEITKTS | not soluble |
| MTDLIHRPRRLRKSAALRAMFEETTLSLNDLVLPIFVEEELDDYKAIDAMPGVMRIPEKQLAREIERIANAGIRSVMTFGISHHTDDTGSDTWKEDGLVARMSRICKQTVPEMIVMSDTCFCEYTSHGHCGVLCEHGVDNDATLANLGKQAVIAAAAGADFIAPSAAMDGQVQAIRQALDAAGFTDTAIMSYSTKFASSFYGPFREAAGTALKGDRKTYQMNPMNRREAIRESLLDEAQGADCLMVKPAGAYLDVLREIRERTELPLGAYQVSGEYAMIKFAAMAGAIDEEKVVLESLGSIKRAGADLIFSYFALDLAEKNILR | not soluble |
| MTDNITDEAIIDKAQELHDKAYDKAVYERDEANGVHANQNNPEVLIFNDGPTDDEIREKLSWVVDRFRETLKPFPRDFDPLIDKIKAIEAAFGQEEDSFGDPDLGMIETSANYMAQWEGALSTNFNEKFLGPMPIIAANHGKLASYLRDHAEKMKSIYESGRQDALNIAEKGVEAIDAINDSNGKDLMIALAVLIAAGTLAGPALGVASAPLAVQLANAAVIAGSVLGGPFVEKGEEVPLGGDTVEEVMNNVRDALDASAKRIFEEEGYLLDALKKSEEEVFPQTSGNTDDHTALLPQQPKVFTATGEELTAGLVQFGSEDGTDGGGGDRGSYVGDDPPDNFEGSVFVPPEKKTATG | not soluble |
| MTDQERIELQKNNPLHGLKLETLLQELVDFYGWDILDTAMRFNCFHTKPSIASSVKYLNKTEWAREKLENFYLYRFKRMPRASSEEFTLPPRARTFPHGLHPKEPMALTVDSILKSQAKAASAHKERTSRSRYNQR | not soluble |
| MTDSTIRIAIVGAGGRMGRQLIQAVTQMEGVVLGAAIERKGSTLVGSDAGELAGVGLLNVIVGDDLSQLTDNFDVLIDFTRPEGTLEHLAICRQHRKAMVIGTTGFDEAGKAAISEAAADIGIVFAANFSVGVNVVLKLLEKAAKVMGDYTDIEIIEAHHRHKVDAPSGTALAMGEAIADAMGRSLKDCAVYSREGYTGERKPGTIGFATVRAGDIVGEHTAMFADIGERVEITHKATSRMTFAHGAVKSAIWLGKHDNGLFDMRDVLNLNEL | soluble |
| MTDVARLLALRSFTELGARQRARALLDAGSFRELLDPFAGVQSPWLERQGIVPQADDGVVVARGLLDGQPAVLAAIEGAFQGGSLGEVSGAKIAGALELAAEDNRNGVPTRALLLLETGGVRLQEANLGLAAIAEIQAAIVDLQRYQPVVAVIAGPVGCFGGMSIAAGLCSYVLVTREARLGLNGPQVIEQEAGIAEYDSRDRPFIWSLTGGEQRFASGLADAYLADDLDEVRTSVLAYFAKGLPARPRCRRAEDYLRRLGDLDTAEQPDAAGVRRLYQGLGQGDAT | not soluble |
| MTEAKIVDISSKDIVLREAVVEGYIKLRKETIEKIKNKEVEKGDVITVAKTAGILAAKKTPELIPMCHPIPLEFVDVEIKIEEEGLRVISTVKAHYKTGVEMEALTATSVALLTIWDMVKKYEKDENGQYPYTEIKSIRVINKIKTYDDMK | soluble |
| MTEHSLWRFSRALHRALNDRQTEELATIIDDNIDWAIYGPIDMFPFFGARQGKAAVLEVCRQIADSVRIYRYHRESVMLGIDSAASMVRYSLTAAGTNRPISVRMALFTQFQNGRLTNLRMVLDTFDLVEQALGRPIHLPKIA | soluble |
| MTEKSLKLFIVLSRAYRSINDHMNKHIHKHGLNPTEFAVLELLYHKGDQPLQQIGDKILLASGSITYVVDKLEQKELLIRKASPTDRRVTFAQITEKGIGLLNDIFPDHAAEIDEMISVLSEEEVEMCTEMLKRVGLNAKQFHNK | not soluble |
| MTESTFPQYPRLVLSKGREKSLLRRHPWVFSGAVSRLEGKANLGETIDIVDHQGKWLARGAWSPASQIRARVWTFDKAESIDIAFFTRRLRQAQQWRDWLAKKDGLDSYRLIAGESDGLPGVTIDRFGHFLVLQLLSAGAEYQRAALISALQTCYPDCAIYDRSDVAVRKKEGMALTQGPVTGELPPALLPIEEHGMKLLVDIQGGHKTGYYLDQRDSRLATRRYVENQRVLNCFSYTGGFAVSALMGGCRQVVSVDTSQDALDIARQNVELNQLDLSKAEFVRDDVFKLLRAYREHGEKFDVIIMDPPKFVENKSQLMGACRGYKDINMLAIQLLNPGGILLTFSCSGLMTSDLFQKIIADAAIDAGRDVQFIEQFRQAADHPVIATYPEGLYLKGFACRVM | not soluble |
| MTETATARRSRITPEREAELYEAVLDLLREVGYDALTMDAVAARTRSSKATLYRQWGGKPELVVKAIRHNKPGEIGDVDTGSLRGDLHALMVREDDCTMEQNSALMRGVAMALHQNPDLRQAFREQLIEPEMAEFQRVLQRAVDRGEIRADCPALDFLVHMMVGGFATRTLLDDQPPTREFLASYIDAVILPALGVSTH | not soluble |
